Data: PMC6650136, “Awakening the Sleeping Carboxylase Function of Enzymes: Engineering the Natural CO2-Binding Potential of Reductases” (Journal of the American Chemical Society, 2019)

System: C=CC(=O)SCCNC(=O)CCNC(=O)[C@H](O)C(C)(C)COP(=O)(O)OP(=O)(O)OC[C@H]1O[C@@H](n2cnc3c(N)ncnc32)[C@H](O)[C@@H]1OP(=O)(O)O
Experiment: purified protein
Conditions: apparent; kcat at 4.4 mM CO2, combined reduction and carboxylation
Text: steady-state kinetics, Michaelis-Menten fit on PCSEN_ΔDH (propionyl-CoA synthase, reductase domain activity)

PCSEN_ΔDH (propionyl-CoA synthase, reductase domain activity) (Erythrobacter sp. NAP1; D1302S/E1027Q)
Km: 27 ± 3 µM | kcat: 1.77 ± 0.09 s⁻¹

PCSEN_ΔDH (propionyl-CoA synthase, reductase domain activity) (Erythrobacter sp. NAP1; D1302S/E1027Q/T1753M)
Km: 26 ± 3 µM | kcat: 0.46 ± 0.03 s⁻¹

PCSEN_ΔDH (propionyl-CoA synthase, reductase domain activity) (Erythrobacter sp. NAP1; E1027Q)
Km: 14 ± 2 µM | kcat: 7.4 ± 1.0 s⁻¹

PCSEN_ΔDH (propionyl-CoA synthase, reductase domain activity) (Erythrobacter sp. NAP1; E1027Q/T1753M)
Km: 19.7 ± 1.2 µM | kcat: 6.5 ± 0.6 s⁻¹
